From article PMC4122391, “Analysis of Functions of VIP1 and Its Close Homologs in Osmosensory Responses of Arabidopsis thaliana”

T1: GST-VIP1ΔN164 (Arabidopsis thaliana, UniProt Q9MA75 165-341)
T1 sequence: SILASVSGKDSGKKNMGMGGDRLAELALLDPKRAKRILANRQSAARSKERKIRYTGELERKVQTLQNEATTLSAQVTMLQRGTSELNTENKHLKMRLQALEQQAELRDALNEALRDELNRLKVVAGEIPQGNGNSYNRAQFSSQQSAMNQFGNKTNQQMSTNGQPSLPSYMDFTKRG

B1: A3 (dsDNA)
DNA 1: CTCTCAAATTAGCTGGCTCCA
DNA 2: TGGAGCCAGCTAATTTGAGAG
B2: A1 (dsDNA)
DNA 1: CTCTCAAATGAGCTGTCTCTC
DNA 2: GAGAGACAGCTCATTTGAGAG

Assays:
GST-VIP1ΔN164 [1] = target: T1, GST-VIP1ΔN164; test: competition; EMSA, CYP707A1 probe; inhibits to same extent as A1; Gel shift with DIG-labeled probes as in cited ref. 17; competitors 0.5 µM unless stated; binding buffer, pH and temperature not given; conditions: protein: recombinant; tags: N-terminal GST; chain copies: 2; blunt
GST-VIP1ΔN164 [2] = target: T1, GST-VIP1ΔN164; test: competition; EMSA, CYP707A1 probe, competitor 0.5 µM; Gel shift with DIG-labeled probes as in cited ref. 17; competitors 0.5 µM unless stated; binding buffer, pH and temperature not given; conditions: protein: recombinant; tags: N-terminal GST; chain copies: 2; blunt

Binder	binding result (GST-VIP1ΔN164 [1])	binding result (GST-VIP1ΔN164 [2])
B1	binds	–
B2	–	binds
